Values quoted from earlier work in article doi:10.1101/2022.06.23.497301.

Molecular target: Asp96 (UniProt position 109, PLLLLDLALLV)
Details: resting (ground, closed) state of bacteriorhodopsin

In the case of “Bacteriorhodopsin (Halobacterium salinarum)”, the pKa is listed as “∼12.0”.
